Assay results: publication PMC3286403
Where “and” joins values, the source holds several entries; their conditions need not be identical. Identical values can stand only once. Like-named read-outs stand apart in the source and are kept apart here.

What was measured:
[1] = target: His6-tagged HIV-1 integrase Y194E (HIV-1); experiment: AlphaScreen or HTRF; HTRF; His-IN 80 nM, GST-LEDGF/p75 or GST-TNPO3 5 nM, anti-GST-Europium Cryptate and anti-His-XL665; 25 mM Hepes pH 7.3, 150 mM NaCl, 2 mM MgCl2, 0.1% BSA, 1 mM DTT; read 2 h after incubation; signal as percent of IN WT ΔF
[2] = target: His6-tagged HIV-1 integrase K188Q (HIV-1); experiment: as above
[3] = target: His6-tagged HIV-1 integrase W131A (HIV-1); experiment: as above
[4] = target: His-tagged HIV-1 integrase Y194A (HIV-1); experiment: as above
[5] = target: His6-tagged HIV-1 integrase Q168L (HIV-1); experiment: as above
[6] = target: untagged HIV-1 integrase W131A (HIV-1); experiment: SEC; 2.5 μM untagged IN on Superdex 200 10/300 GL; 50 mM HEPES pH 7.4, 750 mM NaCl, 10% glycerol; calibrated with protein standards; no DNA
[7] = target: untagged HIV-1 integrase Y194E (HIV-1); experiment: as above
[8] = target: untagged HIV-1 integrase wild type (HIV-1); experiment: as above
[9] = target: His6-tagged HIV-1 integrase Y194E (HIV-1); experiment: AlphaScreen or HTRF; HTRF; His-IN 80 nM, GST-LEDGF/p75 or GST-TNPO3 5 nM, anti-GST-Europium Cryptate and anti-His-XL665; 25 mM Hepes pH 7.3, 150 mM NaCl, 2 mM MgCl2, 0.1% BSA, 1 mM DTT; read 2 h after incubation; signal as percent of IN WT ΔF; remark: listed apart in the source
[10] = target: His6-tagged HIV-1 integrase Y194F (HIV-1); experiment: as above
[11] = target: His6-tagged HIV-1 integrase W131A (HIV-1); experiment: as above; remark: listed apart in the source
[12] = target: His6-tagged HIV-1 integrase Q168L (HIV-1); experiment: as above; remark: listed apart in the source

GST-LEDGF/p75 full length (from UniProt O75475 1-530) (natural protein)
percent decrease of binding against IN WT (HTRF) [1]: 26% | percent decrease of binding against IN WT (HTRF) [2]: 64.9% | percent of IN WT interaction (HTRF) [3]: 9.3% | percent decrease of binding against IN WT (HTRF) [4]: 27% | percent of IN WT interaction (HTRF) [5]: 16.3%

untagged HIV-1 integrase W131A (enzyme)
stoichiometry N [6]: 4 and 2

untagged HIV-1 integrase Y194E (enzyme)
stoichiometry N [7]: 4

untagged HIV-1 integrase wild type (enzyme)
stoichiometry N [8]: 4 and 2

B1: GST-TNPO3 full length (natural protein)
chain: MEGAKPTLQLVYQAVQALYHDPDPSGKERASFWLGELQRSVHAWEISDQLLQIRQDVESCYFAAQTMKMKIQTSFYELPTDSHASLRDSLLTHIQNLKDLSPVIVTQLALAIADLALQMPSWKGCVQTLVEKYSNDVTSLPFLLEILTVLPEEVHSRSLRIGANRRTEIIEDLAFYSSTVVSLLMTCVEKAGTDEKMLMKVFRCLGSWFNLGVLDSNFMANNKLLALLFEVLQQDKTSSNLHEAASDCVCSALYAIENVETNLPLAMQLFQGVLTLETAYHMAVAREDLDKVLNYCRIFTELCETFLEKIVCTPGQGLGDLRTLELLLICAGHPQYEVVEISFNFWYRLGEHLYKTNDEVIHGIFKAYIQRLLHALARHCQLEPDHEGVPEETDDFGEFRMRVSDLVKDLIFLIGSMECFAQLYSTLKEGNPPWEVTEAVLFIMAAIAKSVDPENNPTLVEVLEGVVRLPETVHTAVRYTSIELVGEMSEVVDRNPQFLDPVLGYLMKGLCEKPLASAAAKAIHNICSVCRDHMAQHFNGLLEIARSLDSFLLSPEAAVGLLKGTALVLARLPLDKITECLSELCSVQVMALKKLLSQEPSNGISSDPTVFLDRLAVIFRHTNPIVENGQTHPCQKVIQEIWPVLSETLNKHRADNRIVERCCRCLRFAVRCVGKGSAALLQPLVTQMVNVYHVHQHSCFLYLGSILVDEYGMEEGCRQGLLDMLQALCIPTFQLLEQQNGLQNHPDTVDDLFRLATRFIQRSPVTLLRSQVVIPILQWAIASTTLDHRDANCSVMRFLRDLIHTGVANDHEEDFELRKELIGQVMNQLGQQLVSQLLHTCCFCLPPYTLPDVAEVLWEIMQVDRPTFCRWLENSLKGLPKETTVGAVTVTHKQLTDFHKQVTSAEECKQVCWALRDFTRLFR
percent decrease of binding against IN WT (HTRF) [9]: 23.5% | percent decrease of binding against IN WT (HTRF) [10]: 14.4% | percent of IN WT (HTRF) [11]: 49% | percent of IN WT (HTRF) [12]: 45%
